Assay in all cases: SPR Biacore T200, biotinylated TnC on SA chip, Fab as analyte, 1:1 fit
(In SPR one partner is held on a chip, and binding of the other changes the refractive index at the surface.)

Test [1] concerns the target T1, huTNC (recombinant human TnC antigen) (human, UniProt P24821 984-1798, biotin on the C-terminal avi-tag where used biotinylated (Examples 5 and 10)).
T1 sequence: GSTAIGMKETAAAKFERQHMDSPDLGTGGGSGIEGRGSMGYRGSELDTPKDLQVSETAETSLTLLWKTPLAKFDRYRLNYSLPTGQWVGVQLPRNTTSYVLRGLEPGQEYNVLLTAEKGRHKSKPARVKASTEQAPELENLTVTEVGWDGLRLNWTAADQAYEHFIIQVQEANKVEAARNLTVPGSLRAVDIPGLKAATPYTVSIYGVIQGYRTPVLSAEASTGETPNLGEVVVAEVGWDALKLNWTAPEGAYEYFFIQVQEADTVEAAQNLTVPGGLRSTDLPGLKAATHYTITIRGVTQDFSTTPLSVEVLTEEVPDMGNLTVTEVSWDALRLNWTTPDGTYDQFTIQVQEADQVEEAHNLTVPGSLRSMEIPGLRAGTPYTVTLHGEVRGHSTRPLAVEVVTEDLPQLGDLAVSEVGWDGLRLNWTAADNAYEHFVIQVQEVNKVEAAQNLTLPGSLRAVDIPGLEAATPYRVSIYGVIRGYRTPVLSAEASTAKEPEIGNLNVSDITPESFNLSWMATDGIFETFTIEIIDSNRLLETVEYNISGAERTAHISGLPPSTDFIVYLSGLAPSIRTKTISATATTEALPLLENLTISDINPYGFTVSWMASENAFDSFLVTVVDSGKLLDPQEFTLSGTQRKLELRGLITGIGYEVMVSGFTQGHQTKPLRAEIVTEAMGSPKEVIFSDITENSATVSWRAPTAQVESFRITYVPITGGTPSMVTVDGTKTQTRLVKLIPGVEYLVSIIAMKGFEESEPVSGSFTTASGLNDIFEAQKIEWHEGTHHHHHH
The procedure:
(§1) Binding of the anti-TnC IgGs 18D4, 11C7 and the Fab fragment of anti-TnC 18D4 to human, murine and cynomolgus TnC (antigens according to Table 4) was assessed by surface plasmon resonance (SPR). All SPR experiments were performed on a Biacore T200 at 25° C. with HBS-EP as running buffer (0.01 M HEPES pH 7.4, 0.15 M NaCl, 3 mM EDTA, 0.005% Surfactant P20, Biacore, Freiburg/Germany).
(§2) A 20 μg/ml stock solution of biotinylated human, murine or cynomolgus TnC was injected on a SA chip, with the aim to immobilize up to 100 RU using the immobilization wizard function.
(§3) An additional dissociation step of 1800s was performed for the highest concentration of IgG. After each step the surface was regenerated following two sequential injections of 10 mM glycine pH2.1 for 60 s. Bulk refractive index differences were corrected for by subtracting the response obtained in a reference flow cell without TNC. Affinity and avidity were calculated using the Langmuir 1:1 kinetic model. However, as the KD for the 1:1 fitting of bivalent interactions is an apparent value only, it should only be used for comparisons.

For test [2], the target named is T2, cynoTNC (recombinant cynomolgus TnC antigen) (cynomolgus, biotin on the C-terminal avi-tag where used biotinylated (Example 5)).
T2 construct: GST may have been cleaved off by thrombin; The text says this construct lacks the C domain
T2 chain: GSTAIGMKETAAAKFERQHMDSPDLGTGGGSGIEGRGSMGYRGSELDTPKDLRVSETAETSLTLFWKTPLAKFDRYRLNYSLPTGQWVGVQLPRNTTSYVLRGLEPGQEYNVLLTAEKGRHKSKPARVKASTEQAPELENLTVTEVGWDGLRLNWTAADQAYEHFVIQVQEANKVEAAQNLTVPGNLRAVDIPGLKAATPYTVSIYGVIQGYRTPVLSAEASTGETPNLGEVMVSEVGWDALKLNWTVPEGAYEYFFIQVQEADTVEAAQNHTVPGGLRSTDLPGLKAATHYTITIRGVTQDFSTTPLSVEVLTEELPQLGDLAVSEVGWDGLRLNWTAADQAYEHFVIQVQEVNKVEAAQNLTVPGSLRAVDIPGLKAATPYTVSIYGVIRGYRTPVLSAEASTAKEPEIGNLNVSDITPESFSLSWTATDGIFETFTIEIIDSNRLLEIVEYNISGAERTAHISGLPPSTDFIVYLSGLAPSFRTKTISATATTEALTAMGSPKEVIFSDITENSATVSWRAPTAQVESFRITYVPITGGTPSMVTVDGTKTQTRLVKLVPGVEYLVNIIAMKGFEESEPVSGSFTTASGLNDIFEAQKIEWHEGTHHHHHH
The procedure:
as §1, §2, §3

Test [3] addresses T3, muTNC (recombinant murine TnC antigen) (mouse, biotin on the C-terminal avi-tag where used biotinylated (Example 5)).
T3 construct: GST may have been cleaved off by thrombin; The text says this construct lacks the C domain; also called mouse TnC
T3 chain: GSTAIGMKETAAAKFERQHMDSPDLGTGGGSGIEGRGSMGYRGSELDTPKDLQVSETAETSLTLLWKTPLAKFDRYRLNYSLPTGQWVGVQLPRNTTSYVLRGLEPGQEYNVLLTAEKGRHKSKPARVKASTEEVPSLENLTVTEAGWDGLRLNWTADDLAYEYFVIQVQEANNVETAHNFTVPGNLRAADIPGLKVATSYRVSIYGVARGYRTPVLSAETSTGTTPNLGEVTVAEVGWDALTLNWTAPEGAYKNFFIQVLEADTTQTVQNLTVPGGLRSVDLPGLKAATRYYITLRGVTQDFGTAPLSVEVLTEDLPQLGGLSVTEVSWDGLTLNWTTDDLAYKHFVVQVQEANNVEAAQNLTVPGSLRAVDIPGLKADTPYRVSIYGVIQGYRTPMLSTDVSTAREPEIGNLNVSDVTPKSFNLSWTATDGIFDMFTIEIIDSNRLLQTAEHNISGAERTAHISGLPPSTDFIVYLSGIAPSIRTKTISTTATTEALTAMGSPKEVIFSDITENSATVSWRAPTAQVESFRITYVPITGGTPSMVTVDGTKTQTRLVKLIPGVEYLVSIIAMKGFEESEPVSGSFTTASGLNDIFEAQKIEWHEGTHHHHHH
As to the method: as §1, §2, §3

B1: anti-TnC clone 18D4 Fab fragment (Fab, V domains shown)
VH: QVQLVQSGAEVKKPGSSVKVSCKASGGTFSSYAISWVRQAPGQGLEWMGGIIPIFGTANYAQKFQGRVTITADKSTSTAYMELSSLRSEDTAVYYCAKGNFYGGLDYWGQGTTVTVSS
VL: DIQMTQSPSTLSASVGDRVTITCRASQSISSWLAWYQQKPGKAPKLLIYDASSLESGVPSRFSGSGSGTEFTLTISSLQPDDFATYYCQQNKKFPSGTFGQGTKVEIK
A word on the Kd: it is the equilibrium constant for the complex coming apart. Regarding B1, the values for the Kd in test [1], in test [2] and in test [3] were 1.44 nM, 6.69 nM and 6.5 nM, respectively.

Values taken from patent publication US20190248877A1 (Hoffmann-La Roche, published 2019).
